Measurements as given in patent US20250304644A1, “PEPTIDES TRIPLE AGONISTS OF GIP, GLP-1 AND GLP-2” (BAINAN BIOTECH APS, priority 2021, published 2025).
Residue numbers refer to the chain shown, from its start. Where a SMILES comes first, the peptide text is derived from it. Where no end group is shown, it is not given here. [ ]: non-standard residue; d: D form. The star is where a group is joined. Decanoyl = CCCCCCCCCC(=O)*; Aib = CC(C)(N)C(=O)O

T1: human GIPR (Homo sapiens, UniProt P48546)
T1 construct: host or cells: COS-7
T1 sequence (P48546 22-466): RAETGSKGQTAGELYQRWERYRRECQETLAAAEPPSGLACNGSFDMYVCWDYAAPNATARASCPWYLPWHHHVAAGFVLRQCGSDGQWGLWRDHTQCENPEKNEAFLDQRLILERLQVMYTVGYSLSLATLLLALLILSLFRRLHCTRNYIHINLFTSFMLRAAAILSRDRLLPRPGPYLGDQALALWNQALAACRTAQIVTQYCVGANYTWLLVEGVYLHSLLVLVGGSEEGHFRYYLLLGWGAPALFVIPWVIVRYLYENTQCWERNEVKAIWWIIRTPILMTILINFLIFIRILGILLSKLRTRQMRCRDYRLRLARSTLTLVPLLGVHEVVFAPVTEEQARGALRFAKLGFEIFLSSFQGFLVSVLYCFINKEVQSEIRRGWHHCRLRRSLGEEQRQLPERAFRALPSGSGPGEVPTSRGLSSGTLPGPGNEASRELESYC

T2: human GLP-2R (glucagon-like peptide-2 receptor) (human, UniProt O95838 1-553)
T2 sequence (looked up): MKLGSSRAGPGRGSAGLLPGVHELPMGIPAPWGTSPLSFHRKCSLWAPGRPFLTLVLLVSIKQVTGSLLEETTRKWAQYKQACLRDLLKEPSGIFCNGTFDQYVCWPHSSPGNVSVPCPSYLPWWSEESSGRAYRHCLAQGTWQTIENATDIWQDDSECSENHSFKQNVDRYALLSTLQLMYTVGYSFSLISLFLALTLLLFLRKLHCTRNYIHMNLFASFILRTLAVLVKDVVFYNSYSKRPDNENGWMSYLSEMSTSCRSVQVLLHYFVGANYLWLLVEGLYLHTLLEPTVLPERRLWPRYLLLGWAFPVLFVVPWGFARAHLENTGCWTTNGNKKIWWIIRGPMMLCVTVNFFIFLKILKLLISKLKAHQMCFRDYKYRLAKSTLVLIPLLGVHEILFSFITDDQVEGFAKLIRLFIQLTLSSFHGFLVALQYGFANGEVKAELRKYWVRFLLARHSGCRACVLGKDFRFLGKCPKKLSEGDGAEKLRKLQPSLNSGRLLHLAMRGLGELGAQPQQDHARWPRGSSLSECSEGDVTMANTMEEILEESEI

T3: human GIPR (glucose-dependent insulinotropic polypeptide receptor) (human, UniProt P48546 22-466)
T3 sequence (looked up): T1 sequence (P48546 22-466)

B1: Compound 5 (peptide)
peptide: H[Aib]DGTFISDYSTILDALAARDFINWLIQTKITK(Decanoyl)-NH2
modifications: N-terminus assumed
SMILES: CCCCCCCCCC(=O)NCCCC[C@H](NC(=O)[C@@H](NC(=O)[C@@H](NC(=O)[C@H](CCCCN)NC(=O)[C@@H](NC(=O)[C@H](CCC(N)=O)NC(=O)[C@@H](NC(=O)[C@H](CC(C)C)NC(=O)[C@H](Cc1c[nH]c2ccccc12)NC(=O)[C@H](CC(N)=O)NC(=O)[C@@H](NC(=O)[C@H](Cc1ccccc1)NC(=O)[C@H](CC(=O)O)NC(=O)[C@H](CCCNC(=N)N)NC(=O)[C@H](C)NC(=O)[C@H](C)NC(=O)[C@H](CC(C)C)NC(=O)[C@H](C)NC(=O)[C@H](CC(=O)O)NC(=O)[C@H](CC(C)C)NC(=O)[C@@H](NC(=O)[C@@H](NC(=O)[C@H](CO)NC(=O)[C@H](Cc1ccc(O)cc1)NC(=O)[C@H](CC(=O)O)NC(=O)[C@H](CO)NC(=O)[C@@H](NC(=O)[C@H](Cc1ccccc1)NC(=O)[C@@H](NC(=O)CNC(=O)[C@H](CC(=O)O)NC(=O)C(C)(C)NC(=O)[C@@H](N)Cc1c[nH]cn1)[C@@H](C)O)[C@@H](C)CC)[C@@H](C)O)[C@@H](C)CC)[C@@H](C)CC)[C@@H](C)CC)[C@@H](C)O)[C@@H](C)CC)[C@@H](C)O)C(N)=O
B2: Compound 9 (peptide)
peptide: HXDGTFISDYSTILDNLAARDFIEWLIQTKITK
modifications: Aib at position 2; K33 acylated with C10, K(C10); C-terminal amide (-NH2)
B3: Compound 10 (peptide)
peptide: H[Aib]DGTFISDYSIILDNLAARDFINWLIQTKITK(Decanoyl)-NH2
B4: Compound 11 (peptide)
peptide: H[Aib]EGTFISDYSTILDNLAARDFINWLIQTKITK(Decanoyl)-NH2
B5: Compound 12 (peptide)
peptide: B2 peptide with I13X, E24N
modifications: Aib at positions 2 and 13; K33 acylated with C10, K(C10); C-terminal amide (-NH2)
B6: Compound 13 (peptide)
peptide: H[Aib]DGTFISDYSTELDNLAARDFINWLIQTKITK(Decanoyl)-NH2
modifications: N-terminus assumed
SMILES: CCCCCCCCCC(=O)NCCCC[C@H](NC(=O)[C@@H](NC(=O)[C@@H](NC(=O)[C@H](CCCCN)NC(=O)[C@@H](NC(=O)[C@H](CCC(N)=O)NC(=O)[C@@H](NC(=O)[C@H](CC(C)C)NC(=O)[C@H](Cc1c[nH]c2ccccc12)NC(=O)[C@H](CC(N)=O)NC(=O)[C@@H](NC(=O)[C@H](Cc1ccccc1)NC(=O)[C@H](CC(=O)O)NC(=O)[C@H](CCCNC(=N)N)NC(=O)[C@H](C)NC(=O)[C@H](C)NC(=O)[C@H](CC(C)C)NC(=O)[C@H](CC(N)=O)NC(=O)[C@H](CC(=O)O)NC(=O)[C@H](CC(C)C)NC(=O)[C@H](CCC(=O)O)NC(=O)[C@@H](NC(=O)[C@H](CO)NC(=O)[C@H](Cc1ccc(O)cc1)NC(=O)[C@H](CC(=O)O)NC(=O)[C@H](CO)NC(=O)[C@@H](NC(=O)[C@H](Cc1ccccc1)NC(=O)[C@@H](NC(=O)CNC(=O)[C@H](CC(=O)O)NC(=O)C(C)(C)NC(=O)[C@@H](N)Cc1c[nH]cn1)[C@@H](C)O)[C@@H](C)CC)[C@@H](C)O)[C@@H](C)CC)[C@@H](C)CC)[C@@H](C)O)[C@@H](C)CC)[C@@H](C)O)C(N)=O
B7: Compound 16 (peptide)
peptide: Y[Aib]DGTFISDYSTILDNLAARDFINWLIQTKITK(Decanoyl)-NH2
modifications: N-terminus assumed
SMILES: CCCCCCCCCC(=O)NCCCC[C@H](NC(=O)[C@@H](NC(=O)[C@@H](NC(=O)[C@H](CCCCN)NC(=O)[C@@H](NC(=O)[C@H](CCC(N)=O)NC(=O)[C@@H](NC(=O)[C@H](CC(C)C)NC(=O)[C@H](Cc1c[nH]c2ccccc12)NC(=O)[C@H](CC(N)=O)NC(=O)[C@@H](NC(=O)[C@H](Cc1ccccc1)NC(=O)[C@H](CC(=O)O)NC(=O)[C@H](CCCNC(=N)N)NC(=O)[C@H](C)NC(=O)[C@H](C)NC(=O)[C@H](CC(C)C)NC(=O)[C@H](CC(N)=O)NC(=O)[C@H](CC(=O)O)NC(=O)[C@H](CC(C)C)NC(=O)[C@@H](NC(=O)[C@@H](NC(=O)[C@H](CO)NC(=O)[C@H](Cc1ccc(O)cc1)NC(=O)[C@H](CC(=O)O)NC(=O)[C@H](CO)NC(=O)[C@@H](NC(=O)[C@H](Cc1ccccc1)NC(=O)[C@@H](NC(=O)CNC(=O)[C@H](CC(=O)O)NC(=O)C(C)(C)NC(=O)[C@@H](N)Cc1ccc(O)cc1)[C@@H](C)O)[C@@H](C)CC)[C@@H](C)O)[C@@H](C)CC)[C@@H](C)CC)[C@@H](C)CC)[C@@H](C)O)[C@@H](C)CC)[C@@H](C)O)C(N)=O
B8: Compound 17 (peptide)
peptide: B2 peptide with E24N
modifications: Aib at position 2; K33 acylated with C10 via γGlu linker, K(γGlu-C10); C-terminal amide (-NH2)

What was measured:
human GIPR = molecular target: T1, human GIPR; assay: cAMP assay (HitHunter) in transiently transfected COS-7 cells expressing human GIPR; type: cell-based
Description: (§1) The next day the assay was initiated by washing with HEPES buffered saline (HBS) and followed by an incubation step with assay buffer (HBS added 1 mM isobutyl-1-methylxanthine (IBMX)) for 30 min at 37° C. The ligands were then added and incubated for an additional 30 min at 37° C. After ligand incubation, the HitHunter® CAMP assay (Eurofins DiscoverX, Fremont, […] USA) was carried out according to the manufacturer's instructions. […] The potencies (EC50 values) were determined by nonlinear regression using GraphPad Prism 9 (San Diego, California, USA). Sigmoid curves were fitted logistically. The efficacies (Emax values) were determined by normalization to the highest concentration applied of the endogenous ligand for each receptor.

human GLP-1R = molecular target: T4, human GLP-1R (Homo sapiens, UniProt P43220); assay: cAMP assay (HitHunter) in transiently transfected COS-7 cells expressing human GLP-1R; type: cell-based; details: COS-7; normalized to highest concentration of the endogenous ligand; read-out: Efficacy GLP-1R (Emax)
T4 construct: host or cells: COS-7
Description: as §1

[1] = molecular target: T2, human GLP-2R (glucagon-like peptide-2 …); assay: cell-based or functional assay
[2] = molecular target: human GLP-1R (glucagon-like peptide-1 receptor) (human, UniProt P43220 24-463); assay: cell-based or functional assay
[3] = molecular target: T3, human GIPR (glucose-dependent …); assay: cell-based or functional assay

T4 sequence (P43220 24-463): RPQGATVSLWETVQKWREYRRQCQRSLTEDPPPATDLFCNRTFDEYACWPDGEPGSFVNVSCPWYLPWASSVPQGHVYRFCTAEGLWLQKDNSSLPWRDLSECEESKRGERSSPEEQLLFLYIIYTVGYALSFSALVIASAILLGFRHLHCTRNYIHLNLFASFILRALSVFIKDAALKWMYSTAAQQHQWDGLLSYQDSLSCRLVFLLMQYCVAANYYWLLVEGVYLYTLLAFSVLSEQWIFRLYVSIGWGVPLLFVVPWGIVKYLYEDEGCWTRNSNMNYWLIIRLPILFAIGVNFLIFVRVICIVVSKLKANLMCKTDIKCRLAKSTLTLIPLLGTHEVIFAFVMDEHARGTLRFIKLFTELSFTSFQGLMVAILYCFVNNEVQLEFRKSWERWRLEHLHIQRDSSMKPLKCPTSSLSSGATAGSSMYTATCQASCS

Row | Molecule | Emax (human GIPR; COS-7, normalized to highest concentration of the endogenous ligand, read-out: Efficacy GIPR (Emax)) | EC50 (human GIPR; cAMP, COS-7 cells, human GIPR) | Emax (human GLP-1R) | Efficacy GLP-2R [1] | logEC50 GLP-2R [1] | EC50 (nM) GLP-1R [2] | Efficacy GLP-1R [2] | logEC50 GLP-1R [2] | EC50 (nM) GIPR [3] | Efficacy GIPR [3] | pEC50 GIPR [3] | EC50 (nM) GLP-2R [1]
1 | CCCCCCCCCC(=O)NCCCC[C@H](NC(=O)[C@@H](NC(=O)[C@@H](NC(=O)[C@H](CCCCN)NC(=O)[C@@H](NC(=O)[C@H](CCC(N)=O)NC(=O)[C@@H](NC(=O)[C@H](CC(C)C)NC(=O)[C@H](Cc1c[nH]c2ccccc12)NC(=O)[C@H](CC(N)=O)NC(=O)[C@@H](NC(=O)[C@H](Cc1ccccc1)NC(=O)[C@H](CCC(=O)O)NC(=O)[C@H](CCCNC(=N)N)NC(=O)[C@H](C)NC(=O)[C@H](C)NC(=O)[C@H](CC(C)C)NC(=O)[C@H](CC(N)=O)NC(=O)[C@H](CC(=O)O)NC(=O)[C@H](CC(C)C)NC(=O)[C@@H](NC(=O)[C@@H](NC(=O)[C@H](CO)NC(=O)[C@H](Cc1ccc(O)cc1)NC(=O)[C@H](CC(=O)O)NC(=O)[C@H](CO)NC(=O)[C@@H](NC(=O)[C@H](Cc1ccccc1)NC(=O)[C@@H](NC(=O)CNC(=O)[C@H](CC(=O)O)NC(=O)C(C)(C)NC(=O)[C@@H](N)Cc1c[nH]cn1)[C@@H](C)O)[C@@H](C)CC)[C@@H](C)O)[C@@H](C)CC)[C@@H](C)CC)[C@@H](C)CC)[C@@H](C)O)[C@@H](C)CC)[C@@H](C)O)C(N)=O [Compound 8] (H-H[Aib]DGTFISDYSTILDNLAAREFINWLIQTKITK(Decanoyl)-NH2; N-terminus assumed) | 99% | 1.12 nM | 98% | – | – | – | – | – | – | – | – | –
2 | B1 | – | – | – | 110 | 8.7 | 1.78 nM | 105 | 8.8 | 0.158 nM | 111 | 9.8 | –
3 | B2 | – | – | – | 108 | 8 | 5.62 nM | 105 | 8.3 | 0.708 nM | 104 | 9.2 | –
4 | B3 | – | – | – | 103 | 8 | 3.98 nM | 99 | 8.4 | 0.501 nM | 127 | 9.3 | –
5 | B4 | – | – | – | 68 | 7.6 | 39.8 nM | 76 | 7.4 | 13.6 nM | 89 | 7.9 | 25.1 nM
6 | B5 | – | – | – | 77 | – | – | 76 | – | – | 107 | – | –
7 | B6 | – | – | – | 86 | 7.6 | 25.1 nM | 85 | 7.6 | 7.94 nM | 117 | 8.1 | 25.1 nM
8 | B7 | – | – | – | 93 | 8.1 | 56.2 nM | 59 | 7.3 | 1 nM | 99 | 9 | 8.9 nM
9 | B8 | – | – | – | 92 | – | – | 107 | – | – | 97 | – | –
